The test has as its target T1, orexin receptor type 1 (OX1R), recombinant, stably expressed on HEK cells (human, UniProt O43613 1-425).
T1 construct: whole, on cells; also called HEK-OX1R; hypocretin receptor type 1
T1 sequence (looked up): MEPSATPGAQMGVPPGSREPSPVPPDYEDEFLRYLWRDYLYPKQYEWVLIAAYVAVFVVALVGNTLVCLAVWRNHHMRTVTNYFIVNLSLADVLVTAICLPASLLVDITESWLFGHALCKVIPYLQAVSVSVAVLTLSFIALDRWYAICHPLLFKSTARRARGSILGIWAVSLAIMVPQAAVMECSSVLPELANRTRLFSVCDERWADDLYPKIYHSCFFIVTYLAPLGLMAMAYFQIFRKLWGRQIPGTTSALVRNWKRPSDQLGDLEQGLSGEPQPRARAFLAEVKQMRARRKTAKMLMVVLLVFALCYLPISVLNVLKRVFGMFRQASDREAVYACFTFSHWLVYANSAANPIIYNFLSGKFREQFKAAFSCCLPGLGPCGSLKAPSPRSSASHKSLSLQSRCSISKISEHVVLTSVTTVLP
The experiment in a line: competitive inhibition of 125I-OxA binding to HEK-OX1R cells.

B1: C2 antibody (antibody, V domains shown)
VH: EVQLVESGGSLVKPGGSLRLSCAASGFTFSNSYMNWVRQAPGKGLEWISSIYGSSRYIDYADFVKGRFTISRDNATNSLYLQMNSLRAEDTAVYYCVRSSSYYGSGMDVWGRGTLVTVSS
VL: QSVLTQPASVSGSPGQSITISCAGTSSDVGGYGSVSWYQQHPGKAPKLMIYYDSYRPSGVSNRFSGSKSGNTASLTISGLQAEDEADYYCSSNTNSSTRVFGGGTKLAVLG
notes: Human antibody from phage display; also called anti-OX1R antibody C2
The term IC50 denotes the concentration that gives 50% inhibition. Consider B1, for which the IC50 was around 5 µM.

Source of the values: US20180002421A1 (INSERM INSTITUT NATIONAL DE LA SANTA ET DE LA RECHERCHE …, published 2018).
